In patent US20210238260A1 (published 2021):
Numbering of substitutions follows the chain as printed. Names may count otherwise.

T1: Factor VIIIa (recombinant FVIII, Kogenate FS, activated with alpha-thrombin) (UniProt P00451 20-2351)
T1 construct: also called FVIIIa; cofactor
T1 sequence (looked up): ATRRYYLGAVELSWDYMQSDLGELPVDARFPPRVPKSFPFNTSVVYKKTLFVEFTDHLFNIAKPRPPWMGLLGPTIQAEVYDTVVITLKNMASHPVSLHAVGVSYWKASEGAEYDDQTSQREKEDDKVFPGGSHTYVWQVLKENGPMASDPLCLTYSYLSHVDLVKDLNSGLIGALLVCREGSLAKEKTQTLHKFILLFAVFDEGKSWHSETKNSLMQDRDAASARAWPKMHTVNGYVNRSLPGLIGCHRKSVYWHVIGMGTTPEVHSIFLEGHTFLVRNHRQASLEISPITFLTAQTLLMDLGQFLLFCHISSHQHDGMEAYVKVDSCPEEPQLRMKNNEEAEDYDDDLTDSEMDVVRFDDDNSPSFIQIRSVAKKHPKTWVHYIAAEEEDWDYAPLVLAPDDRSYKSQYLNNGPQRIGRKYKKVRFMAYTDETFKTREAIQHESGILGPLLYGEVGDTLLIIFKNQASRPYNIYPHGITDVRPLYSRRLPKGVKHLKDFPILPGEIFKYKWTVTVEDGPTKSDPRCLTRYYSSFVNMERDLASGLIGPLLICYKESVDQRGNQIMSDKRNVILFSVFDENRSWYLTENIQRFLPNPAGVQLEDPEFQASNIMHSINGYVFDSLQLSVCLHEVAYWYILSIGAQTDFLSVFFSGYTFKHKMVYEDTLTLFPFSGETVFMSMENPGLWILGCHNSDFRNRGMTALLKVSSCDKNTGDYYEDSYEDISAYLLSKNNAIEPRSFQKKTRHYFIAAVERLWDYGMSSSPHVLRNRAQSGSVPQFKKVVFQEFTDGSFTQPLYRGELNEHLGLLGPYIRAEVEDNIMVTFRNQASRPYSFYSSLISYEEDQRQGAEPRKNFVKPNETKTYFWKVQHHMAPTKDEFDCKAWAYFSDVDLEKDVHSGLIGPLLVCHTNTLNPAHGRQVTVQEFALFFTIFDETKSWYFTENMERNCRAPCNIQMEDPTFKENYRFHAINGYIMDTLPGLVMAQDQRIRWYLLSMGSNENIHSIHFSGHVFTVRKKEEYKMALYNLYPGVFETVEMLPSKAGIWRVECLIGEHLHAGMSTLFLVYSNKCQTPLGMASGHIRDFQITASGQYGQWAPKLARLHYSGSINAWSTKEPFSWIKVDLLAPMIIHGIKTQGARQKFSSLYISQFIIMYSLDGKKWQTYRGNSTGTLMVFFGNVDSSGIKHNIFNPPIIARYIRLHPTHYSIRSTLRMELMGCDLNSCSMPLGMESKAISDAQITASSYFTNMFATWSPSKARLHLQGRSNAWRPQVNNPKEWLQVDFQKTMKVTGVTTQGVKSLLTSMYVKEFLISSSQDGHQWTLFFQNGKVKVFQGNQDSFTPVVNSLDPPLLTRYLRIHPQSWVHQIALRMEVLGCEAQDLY

B1: FIXa-R318Y/R338E/T343R (enzyme)
chain 1: YNSGKLEEFVQGNLERECMEEKCSFEEAREVFENTERTTEFWKQYVDGDQCESNPCLNGGSCKDDINSYECWCPFGFEGKNCELDVTCNIKNGRCEQFCKNSADNKVVCSCTEGYRLAENQKSCEPAVPFPCGRVSVSQTSKLTR
chain 2: VVGGEDAKPGQFPWQVVLNGKVDAFCGGSIVNEKWIVTAAHCVETGVKITVVAGEHNIEETEHTEQKRNVIRIIPHHNYNAAINKYNHDIALLELDEPLVLNSYVTPICIADKEYTNIFLKFGSGYVSGWGRVFHKGYSALVLQYLRVPLVDRATCLESTKFRIYNNMFCAGFHEGGRDSCQGDSGGPHVTEVEGTSFLTGIISWGEECAMKGKYGIYTKVSRYVNWIKEKTKLT
B2: FIXa-D104N/K106S/Y155F/R318Y/R338E/R403E/E410N (enzyme)
chain 1: B1 chain 1 with D104N, K106S
chain 2: B1 chain 2 with R163T, R223E, E230N
B3: FIXa-R318Y/R338E/R403E (enzyme)
chain 1: B1 chain 1
chain 2: B1 chain 2 with R163T, R223E
notes: also called R150Y/R170E/R233E
B4: FIXa-R318Y/R338E/R403E/E410N (enzyme)
chain 1: B1 chain 1
chain 2: B1 chain 2 with R163T, R223E, E230N
notes: also called R150Y/R170E/R233E/E240N
B5: FIXa-R338E/R403E/E410N (enzyme)
chain 1: B1 chain 1
chain 2: B1 chain 2 with Y138R, R163T, R223E, E230N
notes: also called R170E/R233E/E240N
B6: FIXa-D104N/K106S/R318Y/R338E/E410N (enzyme)
chain 1: B1 chain 1 with D104N, K106S
chain 2: B1 chain 2 with R163T, E230N
B7: FIXa-R318Y/R338E/E410N (enzyme)
chain 1: B1 chain 1
chain 2: B1 chain 2 with R163T, E230N
notes: also called R150Y/R170E/E240N
B8: FIXa-A103N/N105S/R318Y/R338E/R403E/E410N (enzyme)
chain 1: B1 chain 1 with A103N, N105S
chain 2: B1 chain 2 with R163T, R223E, E230N
B9: FIXa-D203N/F205T/R318Y/E410N (enzyme)
chain 1: B1 chain 1
chain 2: B1 chain 2 with D23N, F25T, E158R, R163T, E230N
notes: also called D39N/F41T/R150Y/E240N
B10: FIXa A103N/N105S/R318Y/R338E/R403E/E410N (enzyme)
light: B1 chain 1 with A103N, N105S
heavy: B1 chain 2 with R163T, R223E, E230N
B11: FIXa D203N/F205T/R318Y/E410N (enzyme)
light: B1 chain 1
heavy: B1 chain 2 with D23N, F25T, E158R, R163T, E230N
notes: as for B9
B12: FIXa-Y155F/K247N/N249S/N260S (enzyme)
chain 1: B1 chain 1
chain 2: B1 chain 2 with K67N, N69S, N80S, Y138R, E158R, R163T
B13: FIXa-K247N/N249S/N260S (enzyme)
chain 1: B1 chain 1
chain 2: B1 chain 2 with K67N, N69S, N80S, Y138R, E158R, R163T
notes: also called K82N/N84S/N95S (chymotrypsin numbering)
B14: FIXa-K247N/N249S/N260S/R318Y/R338E/R403E/E410N (enzyme)
chain 1: B1 chain 1
chain 2: B1 chain 2 with K67N, N69S, N80S, R163T, R223E, E230N
notes: also called K82N/N84S/N95S/R150Y/R170E/R233E/E240N (chymotrypsin numbering)
B15: FIXa-D104N/K106S/Y155F/K247N/N249S/N260S (enzyme)
chain 1: B1 chain 1 with D104N, K106S
chain 2: B1 chain 2 with K67N, N69S, N80S, Y138R, E158R, R163T
B16: FIXa-D104N/K106S/K247N/N249S/N260S (enzyme)
chain 1: B1 chain 1 with D104N, K106S
chain 2: B1 chain 2 with K67N, N69S, N80S, Y138R, E158R, R163T

Target: Factor X (FX) (UniProt P00742 41-488)
Assay: cell-based or functional assay

With B1 the “Factor X activation, fold over wild-type or BeneFIX FIX” value was about 2.5 fold.

Target: T1, Factor VIIIa (recombinant FVIII, …)
Assay: same assay; ratio of KD-app of Catalyst Biosciences WT FIXa to KD-app of this FIXa
Source text: The activity of alpha-thrombin was then quenched by the addition of a highly specific thrombin inhibitor, hirudin, prior to initiating the assay.

Going from B2 to B3, the KD-WT/KD-mut falls from 1.6 to 0.3.

First: B4
Second: B5
The KD-WT/KD-mut of the first is higher: 2 for the first, 1.7 for the second.

Compared with B6, B7 is higher in KD-WT/KD-mut: 7.7 for the first, 12.4 for the second.

Target: T2, plasma purified human AT-III (antithrombin III) (human, UniProt P01008 33-464)
T2 construct: also called AT-III/UFH complex
Assay: K0.5: AT-III conc. for 50% inhibition of FIXa amidolytic activity, AT-III/UFH titrated, 10 s incubation

First: B8
Second: B9
The IC50 of the first is 7.2-fold higher: 9190 nM for the first, 1280 nM for the second.

Target: T3, plasma purified human antithrombin III (AT-III), in complex with unfractionated heparin (human, UniProt P01008 33-464)
T3 construct: also called AT-III/UFH
Assay: AT-III/UFH inhibition of FIXa; K0.5 = AT-III conc. for 50% inhibition of residual activity on Mesyl-D-CHG-Gly-Arg-AMC

First: B10
Second: B11
The IC50 of the first is 7.2-fold higher: 9190 nM for the first, 1280 nM for the second.

Target: T4, plasma purified human antithrombin III (AT-III), in complex with unfractionated heparin (UFH) (human, UniProt P01008 33-464)
T4 construct: also called AT-III/UFH
Assay: K0.5: AT-III concentration (with excess UFH) for 50% inhibition of FIXa activity on Mesyl-D-CHG-Gly-Arg-AMC, 10 s incubation

B12 and B13 are within 1.5-fold of each other in IC50: 152 nM for the first, 157 nM for the second.

Compared with B14, B15 is 8-fold lower in IC50: 5560 nM for the first, 692 nM for the second. The second is the more potent here.

In the case of B16, the IC50 is reported as 1260 nM.

Target: T1, Factor VIIIa (recombinant FVIII, …)
Assay: apparent functional KD (KD-app): FXa generation by FIXa with FVIIIa titrated, PC/PS vesicles, saturating FX, fluorogenic Spectrafluor FXa
Procedure: Reactions were monitored in a SpectraMax fluorescence plate reader for 30 min at 37° C. A standard curve of free AMC served as the conversion factor for RFU to μM in the subsequent data analysis calculations using a dose range that covered 0 μM to 100 μM AMC.

Compared with B2, B3 is 5.5-fold higher in Kd: 61.6 nM for the first, 340 nM for the second.

B4 and B5 are within 1.5-fold of each other in Kd: 47 nM for the first, 54.9 nM for the second.

Compared with B6, B7 is 1.6-fold lower in Kd: 12.4 nM for the first, 7.7 nM for the second. The second binds more tightly here.
